Laboratory results taken from US20040063790A1, “Methods for inhibition of angiogenesis” (The Scripps Research Institute, priority 1996, published 2004).

B1: CTMMP-2(2-4): GST fusion protein of chicken MMP-2 C-terminal residues 445-637 (protein)
chain: LCKHDIVFDGVAQIRGEIFFFKDRFMWRTVNPRGKPTGPLLVATFWPDLPEKIDAVYESPQDEKAVFFAGNEYWVYTASNLDRGYPKKLTSLGLPPDVQRIDAAFNWGRNKKTYIFSGDRYWKYNEEKKKMELATPKFIADSWNGVPDNLDAVLGLTDSGYTYFFKDQYYLQMEDKSLKIVKIGKISSDWLGC
modifications: left off: a dimerising Fc or GST
B2: MMP-2: matrix metalloproteinase-2, intact protein (protein)
chain: APSPIIKFPGDSTPKTDKELAVQYLNKYYGCPKDNCNLFVLKDTLKKMQKFFGLPETGDLDQNTIETMKKPRCGNPDVANYNFFPRKPKWEKNHITYRIIGYTPDLDPETVDDAFARAFKVWSDVTPLRFNRINDGEADIMINFGRWEHGDGYPFDGKDGLLAHAFAPGPGIGGDSHFDDDELWTLGEGQVVRVKYGNADGEYCKFPFWFNGKEYNSCTDAGRNDGFLWCSTTKDFDADGKYGFCPHESLFTMGGNGDGQPCKFPFKFQGQSYDQCTTEGRTDGYRWCGTTEDYDRDKKYGFCPETAMSTVGGNSEGAPCVFPFIFLGNKYDSCTSAGRNDGKLWCASTSSYDDDRKWGFCPDQGYSLFLVAAHEFGHAMGLEHSEDPGALMAPIYTYTKNFRLSQDDIKGIQELYEVSPDVEPGPGPGPGPGPRPTLGPVTPELCKHDIVFDGVAQIRGEIFFFKDRFMWRTVNPRGKPTGPLLVATFWPDLPEKIDAVYESPQDEKAVFFAGNEYWVYTASNLDRGYPKKLTSLGLPPDVQRIDAAFNWGRNKKTYIFSGDRYWKYNEEKKKMELATPKFIADSWNGVPDNLDAVLGLTDSGYTYFFKDQYYLQMEDKSLKIVKIGKISSDWLGC

Experiments:
αvβ3 = biological target: T1, αvβ3 (Homo sapiens, UniProt P05106+P06756); assay: Solid phase receptor binding assay (iodinated MMP-2, labeled fusion proteins)
T1 construct: selected purified integrins were separately immobilized in Titertek microtiter wells
Protocol: In addition, the ability of peptides to inhibit the binding of either MMP-2 or VN to immobilized αvβ3 was assessed with peptides 69601 (SEQ ID NO: 6) and 66203 (SEQ ID NO: 5).
Specificity of receptor interaction with MMP-2-derived antagonists was confirmed with binding and inhibition of binding solid phase assays. […] In addition, the binding of labeled GST2-4 was competed by unlabeled GST2-4.

[1] = system: bFGF-induced angiogenesis; assay: CAM assay, growth factor-induced angiogenesis, intravenous application; format: in vivo, chick; details: 50 μg fusion protein; after 48 and 72 hours
Protocol: J. Pathol., 79:597 (1975). CAMs were prepared from chick embryos for subsequent induction of angiogenesis and inhibition thereof as described in Examples 4 and 5, respectively. Ten day old chick embryos were obtained from McIntyre Poultry (Lakeside, Calif.) and incubated at 37° C. with 60% humidity. A small hole was made through the shell at the end of the egg directly over the air sac with the use of a small crafts drill (Dremel, Division of Emerson Electric Co. Racine Wis.). A second hole was drilled on the broad side of the egg in a region devoid of embryonic blood vessels determined previously by candling the egg. […] A 1.0 centimeter (cm)×1.0 cm square window was cut through the shell over the dropped CAM with the use of a small model grinding wheel (Dremel). The small window allowed direct access to the underlying CAM.
Angiogenesis was induced by placing a 5 millimeter (mm)×5 mm Whatman filter disk (Whatman Filter paper No.1) saturated with Hanks Balanced Salt Solution (HBSS, GIBCO, Grand Island, N.Y.) or HBSS containing 150 nanograms/milliliter (ng/ml) recombinant basic fibroblast growth factor (bFGF) (Genzyme, Cambridge, Mass.) on the CAM of a 10-day chick embryo in a region devoid of blood vessels and the windows were latter sealed with tape. In other assays, 125 ng/ml bFGF was also effective at inducing blood vessel growth. For assays where inhibition of angiogenesis ws evaluated with intravenous injections of antagonists, angiogenesis was first induced with 1-2 μg/ml bFGF in fibroblast growth medium. Angiogenesis was monitored by photomicroscopy after 72 hours. CAMs were snap frozen, and 6 um cryostat sections were fixed with acetone and stained by immunofluorescence as described in Example 3C with 10 μg/ml of either anti-β1 monoclonal antibody CSAT or LM609.
For CAM preparations in which angiogenesis was induced with 1-2 μg/ml bFGF as previously described, synthetic peptides 69601 (control) and 66203 (SEQ ID NO: 5) were separately intravenously injected into CAM preparations 18 hours after bFGF induction of angiogenesis. The preparations were maintained for an additional 36-40 hours after which time the number of branch points were determined as previously described.
In other assays, peptide 85189 (SEQ ID NO: 15) was evaluated for inhibiting bFGF-induced angiogenesis in the CAM assay over a dosage range of 10 μg/embryo to 300 μg/embryo. The assay was performed as previously described.
In still further assays, peptide 85189 was compared to peptides 69601 and 66203 for anti-angiogenesis activity. The assay was performed as described above with the exception that 50 μg peptide were used.
The effectiveness of the different salt formulations of peptide 85189 was also evaluated in similar bFGF-induced CAM assays. The peptides were used at 100 μg/embryo. […] Untreated CAMs, labeled as “no cytokine” had approximately […] as many branch points as that seen with bFGF treatment, respectively 70 versus 190.
With the above-described protocol, the effect of MMP-2 fusion proteins, CTMMP-2(2-4), also referred to as CTMMP-2(445-467) and CTMMP-2(10-1), also referred to as CTMMP-2(274-637) was also evaluated. The assay was performed as previously described with the exception that 50 μg of fusion protein was administered to the bFGF-treated embryos. The effect of fusion protein treatment was assessed at 24 hours, 48 hours and 72 hours.
The 10 day old CAM preparation was used as previously described in Example 5A. Twenty-four hours after bFGF-induced angiogenesis was initiated, the organic peptidomimetics referred to as compounds 16 (81218), 17 (87292) and 18 (87293) were separately intravenously injected into the CAM preparation in a volume of 100 μl at a concentration of 1 mg/ml (100 μg/embryo) in 20% tetraglycol-PBS at pH 7.0. In parallel assays, compounds 7 (96112), 9 (99799), 10 (96229), 12 (112854) and 14 (96113) were similarly evaluated. […]

[2] = system: αvβ3-expressing CS-1 cells; assay: Inhibition of cell attachment assay; format: cell-based, hamster
Protocol: As one means to determine integrin receptor specificity of the antagonists of this invention, inhibition of cell attachment assays were performed as described below.
Briefly, CS-1 hamster melanoma cells lacking expression of αvβ3 and αvβ5 were first transfected with an plasmid for expressing the […] as previously described by Filardo et al., J. Cell Biol., 130:441-450 (1995). Specificity of potential αvβ3 antagonists was determined by the ability to block the binding of αvβ3-expressing CS-1 cells to VN or laminin coated plates. As an example of a typical assay, the wells were first coated with 10 μg/ml substrate overnight. After rinsing and blocking with 1% heat-denatured BSA in PBS at room temperature for 30 minutes, peptide 85189 (SEQ ID NO: 15) over a concentration range of 0.0001 μM to 100 μM, was separately mixed with CS-1 cells for applying to wells with a cell number of 50, 000 cells/well. After a 10-15 minute incubation at 37° C., the solution containing the cells and peptides was discarded. The number of attached cells was then determined following staining with 1% crystal violet. Cell associated crystal violet was eluted by the addition of 100 microliters (μl) of 10% acetic acid. Cell adhesion was quantified by measuring the optical density of the eluted crystal violet at a wave length of 600 nm.

CS-1 tumor (β3-negative) = assay: CS-1 tumor growth in CAM; format: in vivo, chick; details: 50 μg intravenously after 24 hours of tumor growth; mass after 6 days; versus CTMMP-2(10-1) or PBS
Protocol: A CS-1 tumor (β3-negative) was prepared in a CAM as described above. After 24 hours of tumor growth, a composition of MMP-2 fragment, designated CTMMP-2(2-4) and prepared as described in Example 2A, was administered intraveneously at 50 μg fragment in 100 μl of PBS. After 6 days, the tumor was evaluated for mass. Tumors treated with CTMMP-2(2-4) were reduced in growth rate by about 50% when compared to the growth rate of control tumors treated with CTMMP-2(10-1) or with PBS control.

αIIbβ3 = biological target: T2, αIIbβ3 (Homo sapiens, UniProt P05106+P08514); assay: Solid phase receptor binding assay (iodinated MMP-2, labeled fusion proteins)
T2 construct: selected purified integrins were separately immobilized in Titertek microtiter wells

T1 sequence (P06756 31-889 limits assumed): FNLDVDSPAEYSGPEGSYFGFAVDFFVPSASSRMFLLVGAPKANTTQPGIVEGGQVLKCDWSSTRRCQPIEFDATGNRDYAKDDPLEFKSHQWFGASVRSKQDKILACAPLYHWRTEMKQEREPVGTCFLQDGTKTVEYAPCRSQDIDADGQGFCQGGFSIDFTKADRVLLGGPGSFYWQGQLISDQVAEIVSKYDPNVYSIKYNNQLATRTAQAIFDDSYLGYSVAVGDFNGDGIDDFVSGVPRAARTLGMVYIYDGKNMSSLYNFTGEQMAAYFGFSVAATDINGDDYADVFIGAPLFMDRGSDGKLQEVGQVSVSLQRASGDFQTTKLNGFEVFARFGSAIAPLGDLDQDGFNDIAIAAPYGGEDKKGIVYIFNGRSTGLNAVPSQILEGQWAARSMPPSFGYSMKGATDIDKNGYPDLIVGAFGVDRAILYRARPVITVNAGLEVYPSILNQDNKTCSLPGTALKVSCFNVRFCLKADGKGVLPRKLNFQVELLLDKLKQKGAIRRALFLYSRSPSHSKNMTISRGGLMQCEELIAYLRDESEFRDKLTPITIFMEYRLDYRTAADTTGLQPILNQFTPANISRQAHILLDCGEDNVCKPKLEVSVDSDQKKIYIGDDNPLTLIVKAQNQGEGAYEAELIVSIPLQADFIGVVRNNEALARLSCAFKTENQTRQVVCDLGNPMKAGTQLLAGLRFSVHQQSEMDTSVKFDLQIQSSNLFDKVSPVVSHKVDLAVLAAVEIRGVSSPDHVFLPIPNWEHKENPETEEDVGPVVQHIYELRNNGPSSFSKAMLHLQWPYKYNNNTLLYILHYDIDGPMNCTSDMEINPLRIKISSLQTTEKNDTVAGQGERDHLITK
T1 sequence (P06756 891-1048 partner limits assumed): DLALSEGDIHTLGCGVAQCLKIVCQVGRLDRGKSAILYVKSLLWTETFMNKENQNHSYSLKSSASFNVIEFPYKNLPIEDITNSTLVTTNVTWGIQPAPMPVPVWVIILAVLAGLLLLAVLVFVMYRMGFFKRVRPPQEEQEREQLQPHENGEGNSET
T1 sequence (P05106 27-788): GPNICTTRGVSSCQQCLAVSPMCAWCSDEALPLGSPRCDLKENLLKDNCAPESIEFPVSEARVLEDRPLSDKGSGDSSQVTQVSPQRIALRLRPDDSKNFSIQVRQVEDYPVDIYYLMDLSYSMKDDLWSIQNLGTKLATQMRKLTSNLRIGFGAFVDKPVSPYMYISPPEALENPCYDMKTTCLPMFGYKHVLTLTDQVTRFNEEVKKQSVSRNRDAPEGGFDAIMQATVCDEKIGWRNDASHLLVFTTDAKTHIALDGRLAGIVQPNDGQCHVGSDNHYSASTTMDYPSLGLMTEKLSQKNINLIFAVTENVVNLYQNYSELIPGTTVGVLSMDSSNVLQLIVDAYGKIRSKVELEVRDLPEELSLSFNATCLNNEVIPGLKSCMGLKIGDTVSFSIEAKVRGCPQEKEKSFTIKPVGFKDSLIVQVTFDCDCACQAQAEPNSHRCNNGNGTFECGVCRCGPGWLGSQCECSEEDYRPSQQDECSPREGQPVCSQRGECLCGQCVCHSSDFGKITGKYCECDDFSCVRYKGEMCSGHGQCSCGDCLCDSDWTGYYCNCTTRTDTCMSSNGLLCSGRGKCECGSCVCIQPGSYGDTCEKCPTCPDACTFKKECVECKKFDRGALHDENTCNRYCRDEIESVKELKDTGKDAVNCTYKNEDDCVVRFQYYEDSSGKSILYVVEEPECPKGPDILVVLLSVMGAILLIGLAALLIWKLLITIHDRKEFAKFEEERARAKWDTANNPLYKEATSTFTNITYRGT

Row | Molecule | competition of labeled GST2-4 binding by unlabeled protein (αvβ3) | inhibition of binding of iodinated MMP-2 to αvβ3 (αvβ3; FIG. 8) | binding of 125I-labeled fusion protein to αvβ3 (αvβ3; FIG. 9) | inhibition of bFGF-induced angiogenesis by fusion protein [1] | inhibition of β3-expressing CS-1 cell adhesion to laminin [2] | inhibition of β3-expressing CS-1 cell adhesion to vitronectin [2] | reduction in tumor growth rate (CS-1 tumor (β3-negative)) | bound iodinated MMP-2 on immobilized αvβ3 (αvβ3) [cpm] | bound iodinated MMP-2 on immobilized αIIbβ3 (αIIbβ3)
1 | B1 | competed | inhibited the binding of iodinated MMP-2 | bound | almost completely inhibited | but not laminin | inhibited | about 50% |  | 
2 | B2 |  |  |  |  | but not laminin | inhibited |  | 300 | approximately 10 CPM
